Laboratory results from publication PMC4058522, “Structural Basis for Phosphorylation-Dependent Recruitment of Tel2 to Hsp90 by Pih1” (Structure(London, England:1993), 2014).
pKd: −log10 of the molar value.

What was measured:
[1] = target: mouse Pih1 PIH domain 1-200 (His-mPih1 1-200) (mouse) (UniProt Q9CQJ2); experiment: ITC; peptides at 350 μM injected into 30 μM Pih1 (mPIH domain) at 30°C; 20 mM Tris pH 7.5, 5 mM NaCl
[2] = target: yeast Hsp90, intact (full-length) dimer (yeast) (UniProt P02829); experiment: ITC; 600 μM Tah1 injected into 40 μM yeast Hsp90; 10 mM Tris pH 7.5, 5 mM NaCl; 10°C or 30°C (not told which)
[3] = target: human Spagh/RPAP3 120-395 (tandem TPR region) (human) (UniProt Q9H6T3); experiment: ITC; 500 μM yeast Hsp90 injected into 20 μM Spagh/RPAP3 120-395; 10 mM Tris pH 7.5, 5 mM NaCl; 10°C or 30°C (not told which)
[4] = target: pre-assembled full-length yeast Tah1-Pih1 complex (yeast) (UniProt P25638); experiment: ITC; 301 μM yeast Hsp90 injected into 25 μM yeast Tah1-Pih1 complex; 10 mM Tris pH 7.5, 5 mM NaCl; 10°C or 30°C (not told which)

mouse Pih1 PIH domain 1-200 (His-mPih1 1-200) (mouse), sequence (Q9CQJ2 1-200): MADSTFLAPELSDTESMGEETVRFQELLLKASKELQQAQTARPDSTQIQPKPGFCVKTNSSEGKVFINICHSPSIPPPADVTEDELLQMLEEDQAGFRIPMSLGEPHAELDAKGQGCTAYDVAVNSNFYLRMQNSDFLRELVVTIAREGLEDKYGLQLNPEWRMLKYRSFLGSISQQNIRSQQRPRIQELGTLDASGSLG
human Spagh/RPAP3 120-395 (tandem TPR region) (human), sequence (Q9H6T3 120-395): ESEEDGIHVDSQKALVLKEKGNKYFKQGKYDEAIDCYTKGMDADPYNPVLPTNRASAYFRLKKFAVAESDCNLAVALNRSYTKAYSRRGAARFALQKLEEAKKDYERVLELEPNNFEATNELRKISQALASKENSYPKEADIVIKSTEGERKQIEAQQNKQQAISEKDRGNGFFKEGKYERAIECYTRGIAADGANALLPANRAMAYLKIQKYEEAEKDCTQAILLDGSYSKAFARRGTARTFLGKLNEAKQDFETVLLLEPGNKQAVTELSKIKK

| Substance | pKd [1] | further results |
| --- | --- | --- |
| mouse Tel2 484-496 peptide, pSer 488 | 4.82 | – |
| Tah1 (yeast, full-length) (from UniProt P25638 1-111) (natural protein) | – | pKd [2]: 5.23; stoichiometry N (Tah1 per Hsp90 chain) [2]: 1 |
| yeast Hsp90, intact (full-length) dimer (from UniProt P02829 1-709) (natural protein) | – | pKd [3]: 5.17; stoichiometry N ([3]; scale: Hsp90 chains per Spagh/RPAP3): 2; pKd [4]: 5.40 |
| mouse Tel2 484-496 peptide, bis-phosphorylated pSer 488 and pSer 492 (QGSDpSELDpSDDEF) | 6.77 | – |

Further lines, with some results ahead:

| pKd [1] | Substance | further results |
| --- | --- | --- |
| 6.41 | mouse Tel2 484-496 peptide, pSer 492 | – |
| 4.42 | mouse Tel2 484-496 peptide, bis-phosphorylated pSer 486 and pSer 488 | – |
| < 4.00 | mouse Tel2 484-496 peptide, pSer 486 | – |
